Experimental data as given in patent US20150087527A1, “METHOD AND KIT FOR THE CLASSIFICATION AND PROGNOSIS OF TISSUE OR ORGAN FIBROSIS IN A REPARATIVE OR REACTIVE PROCESS” (VIVATECH, priority 2012, published 2015).

Assays:
[1] = system: PI16 mRNA in NHDF (Normal Human Dermal Fibroblast); assay: Timing of PI16 mRNA expression after TGFbeta treatment (RTqPCR); type: cell-based; settings: after 1 h of TGFbeta, FIG. 4A and B
Experimental: Quantitative real-time PCR (RT-qPCR) was done using 5 μL of 1:20 diluted cDNA on the LightCycler480 system (Roche) using Maxima SYBR Green qPCR Master Mix (Fermentas). Forward and reverse primers were designed by Eurofins (MWG, αSMA forward: […] (SEQ ID NO:1), αSMA reverse: […] (SEQ ID NO:2)) and a 100 μM stock was stored at −20° C. Forward and reverse primer pairs were used for each RT-qPCR reaction. The cycling conditions were as follows: an initial 95° C. for 10 minutes, followed by 45 cycles of 95° C. for 15 sec, 58° C. for 30 sec, 72° C. for 20 sec. LightCycler 480 SW 1.5 was used to evaluate the TM curves, to determine the Cp and to approximate the relative concentration for each amplification reaction.
NHDF (Normal Human Dermal Fibroblast) were treated with TGFbeta as described previously for different times (between 1 h and 96 h). After treatment mRNA were extracted and levels of PI16 mRNA were assessed by RTqPCR.

αSMA expression in NHDF = assay: Ex vivo model for fibrosis or hypertrophic scar: αSMA expression by RT-qPCR and Western Blot; type: cell-based, human; settings: fibroblasts cultivated with TGF-β (10 ng/mL TGF-β1); FIGS. 1 and 2
Experimental: To study the myofibroblasts involved in generating hypertrophic or keloid scars, NHDF were cultivated on collagen coated culture plates in DMEM-F12 (Invitrogen), supplemented with 10% FCS (Invitrogen), 5 μg/mL of insulin and 1 ng/mL of b-FGF (PromoKine) and 10 ng/mL of TGF-β1 (Promocell), as TGF-β1 is known to induce the expression of αSMA in fibroblasts (Desmouliere A, Geinoz A, Gabbiani F, Gabbiani G (1993) Transforming growth factor-beta 1 induces alpha-smooth muscle actin expression in granulation tissue myofibroblasts and in quiescent and growing cultured fibroblasts. J Cell Biol, 1993 July, 122(1): 103-111). […]
This αSMA expression was assessed by RT-qPCR (mRNA levels) and by Western Blot (protein).
Total proteins were extracted by scratching the cells with lysis buffer (TRIS, NaCl, NP40, EDTA, IMDTT) and incubated 30 min in ice. […] Protein concentration was determined according to BCA method (Sigma). […] Signals were detected by ECL chemiluminescence using UptiLight HS WB Substrate (Uptima, Interchim). Bands were digitized with a scanner and the ratio between all bands density of the same blot was calculated by software (ImageJ 1.43u, 64-bit). […]
After four days of experiment, treated fibroblasts were detached with TRIzol Reagent (Invitrogen) and stored at −80° C. […] Total RNA was quantified on the NanoDrop 2000c Spectrophotometer (Thermo Scientific). […]

TGF-β: TGF-β1 (Promocell), known to induce the expression of αSMA in fibroblasts
PI16 mRNA up regulation after TGFbeta treatment [1]: 3 ×
αSMA expression (mRNA and protein) (αSMA expression in NHDF): high level
